Here are results for 16 molecules from US20260232830A1 (JIANGSU HENGRUI PHARMACEUTICALS, published 2026).

The target of assay [1] is T1, human EGFR-His antigen (human, UniProt P00533 25-645).
T1 construct: also called hEGFR-His
Briefly: SPR Biacore 8K, antibody on Protein A chip, 1:1 fit. (SPR reads the build-up and loss of mass on a sensor chip optically.)

Assay [2] addresses T2, cyno MUC1-C on stably transfected CHOK1 cells (cyno).
T2 construct: domain: MUC1-C; also called CHOK1-cyno-MUC1-C cells; Monkey MUC1-CT
Briefly: FACS, CHOK1-cyno-MUC1-C.

Assay [3] deals with T1, human EGFR-His antigen. As to the kind of experiment: SPR Biacore 8K, antibody on Protein A chip, 1:1 fit. This is another data set of the same source.

Where two headings read alike, the source gives them in different places.

B1: ZalH2 (antibody, human IgG1, kappa, V domains shown)
VH: QVQLVESGGGVVQPGRSLRLSCAASGFTFSTYGMHWVRQAPGKGLEWVAVIWEDGSYKYYGDSVKGRFTISRDNSKNTLYLQMNSLRAEDTAVYYCARDGITMVRGVMKDYFDYWGQGTLVTVSS
VL: DIQLTQSPSSLSASVGDRVTITCRASQDISSALVWYQQKPGKAPKLLIYDASSLESGVPSRFSGSESGTDFTLTISSLQPEDFATYYCQQFNSYPLTFGGGTKVEIKR
notes: anti-EGFR zalutumumab variant, human IgG1
For B1, in assay [1], the affinity, expressed as Kd, was 92.9 nM; the koff (in general, the first-order rate constant of dissociation) turned out to be 0.00812 s⁻¹; the kon (commonly a measure of how fast the partners come together) worked out at 87400 M⁻¹ s⁻¹.

B2: ZalH8 (antibody, human IgG1, kappa, V domains shown)
VH: QVQLVESGGGVVQPGRSLRLSCAASGFTFSSYGMHWVRQAPGKGLEWVAVIWDDGSYKYYGDSVKGRFTISRDNSKNTLYLQMNSLRAEDTAVYYCARDGLTMVRGVMKDYFDYWGQGTLVTVSS
VL: DIQLTQSPSSLSASVGDRVTITCRASQDISSALVWYQQKPGKAPKLLIYDASSLESGVPSRFSGSESGTDFTLTISSLQPEDFATYYCQQFNSYPLTFGGGTKVEIKR
notes: as for B1
For the molecule B2, in assay [1], the Kd (in general, the free concentration of one partner at which half of the binding sites on the other are occupied at equilibrium, for simple one-to-one binding) is 483 nM; the koff came out at 0.0369 s⁻¹; the kon stood at 76500 M⁻¹ s⁻¹.

B3: ZalH14 (antibody, human IgG1, kappa, V domains shown)
VH: QVQLVESGGGVVQPGRSLRLSCAASGFTFSTYGMHWVRQAPGKGLEWVAVIWYDGSNKYYADSVKGRFTISRDNSKNTLYLQMNSLRAEDTAVYYCARDGITMVRGVMKDYFDYWGQGTLVTVSS
VL: DIQLTQSPSSLSASVGDRVTITCRASQDISSALVWYQQKPGKAPKLLIYDASSLESGVPSRFSGSESGTDFTLTISSLQPEDFATYYCQQFNSYPLTFGGGTKVEIKR
notes: as for B1
In assay [1], B3 came in with a Kd of 210 nM, a koff of 0.0275 s⁻¹ and a kon of 131000 M⁻¹ s⁻¹.

B4: ZalH10 (antibody, human IgG1, kappa, V domains shown)
VH: QVQLVESGGGVVQPGRSLRLSCAASGFTFSSYGMHWVRQAPGKGLEWVAVIWDDGSYKYYGDSVKGRFTISRDNSKNTLYLQMNSLRAEDTAVYYCARDGATMVRGVMKDYFDYWGQGTLVTVSS
VL: DIQLTQSPSSLSASVGDRVTITCRASQDISSALVWYQQKPGKAPKLLIYDASSLESGVPSRFSGSESGTDFTLTISSLQPEDFATYYCQQFNSYPLTFGGGTKVEIKR
notes: as for B1
As to B4, in assay [1], binding was characterised by a dissociation constant (Kd) of 133 nM, the koff was 0.0174 s⁻¹ and the kon is 131000 M⁻¹ s⁻¹.

B5: ZalH5 (antibody, human IgG1, kappa, V domains shown)
VH: QVQLVESGGGVVQPGRSLRLSCAASGFTFSTYGMHWVRQAPGKGLEWVAVIWDDGSYKYYGDSVKGRFTISRDNSKNTLYLQMNSLRAEDTAVYYCARDGATMVRGVMKDYFDYWGQGTLVTVSS
VL: DIQLTQSPSSLSASVGDRVTITCRASQDISSALVWYQQKPGKAPKLLIYDASSLESGVPSRFSGSESGTDFTLTISSLQPEDFATYYCQQFNSYPLTFGGGTKVEIKR
notes: as for B1
Turning to B5, in assay [1], the Kd was 96.4 nM, the koff worked out at 0.0125 s⁻¹ and the kon is 129000 M⁻¹ s⁻¹.

B6: ZalH9 (antibody, human IgG1, kappa, V domains shown)
VH: QVQLVESGGGVVQPGRSLRLSCAASGFTFSSYGMHWVRQAPGKGLEWVAVIWDDGSYKYYGDSVKGRFTISRDNSKNTLYLQMNSLRAEDTAVYYCARDGVTMVRGVMKDYFDYWGQGTLVTVSS
VL: DIQLTQSPSSLSASVGDRVTITCRASQDISSALVWYQQKPGKAPKLLIYDASSLESGVPSRFSGSESGTDFTLTISSLQPEDFATYYCQQFNSYPLTFGGGTKVEIKR
notes: as for B1
As for B6, in assay [1], the Kd is 51.6 nM, the koff was 0.00234 s⁻¹ and the kon was 45400 M⁻¹ s⁻¹.

B7: ZalH13 (antibody, human IgG1, kappa, V domains shown)
VH: QVQLVESGGGVVQPGRSLRLSCAASGFTFSSYAMHWVRQAPGKGLEWVAVIWDDGSYKYYGDSVKGRFTISRDNSKNTLYLQMNSLRAEDTAVYYCARDGITMVRGVMKDYFDYWGQGTLVTVSS
VL: DIQLTQSPSSLSASVGDRVTITCRASQDISSALVWYQQKPGKAPKLLIYDASSLESGVPSRFSGSESGTDFTLTISSLQPEDFATYYCQQFNSYPLTFGGGTKVEIKR
notes: as for B1
B7: in assay [1], binding was put at a Kd of 1.96 nM, the koff was 0.000187 s⁻¹ and the kon is 95500 M⁻¹ s⁻¹.

B8: ZalH12 (antibody, human IgG1, kappa, V domains shown)
VH: QVQLVESGGGVVQPGRSLRLSCAASGFTFSTYGMHWVRQAPGKGLEWVAVIWDDGSNKYYGDSVKGRFTISRDNSKNTLYLQMNSLRAEDTAVYYCARDGITMVRGVMKDYFDYWGQGTLVTVSS
VL: DIQLTQSPSSLSASVGDRVTITCRASQDISSALVWYQQKPGKAPKLLIYDASSLESGVPSRFSGSESGTDFTLTISSLQPEDFATYYCQQFNSYPLTFGGGTKVEIKR
notes: as for B1
For the molecule B8, in assay [1], the Kd was 120 nM, the koff was 0.0144 s⁻¹ and the kon stood at 120000 M⁻¹ s⁻¹.

B9: ZalH7 (antibody, human IgG1, kappa, V domains shown)
VH: QVQLVESGGGVVQPGRSLRLSCAASGFTFSSYGMHWVRQAPGKGLEWVAVIWEDGSYKYYGDSVKGRFTISRDNSKNTLYLQMNSLRAEDTAVYYCARDGITMVRGVMKDYFDYWGQGTLVTVSS
VL: DIQLTQSPSSLSASVGDRVTITCRASQDISSALVWYQQKPGKAPKLLIYDASSLESGVPSRFSGSESGTDFTLTISSLQPEDFATYYCQQFNSYPLTFGGGTKVEIKR
notes: as for B1
For B9, in assay [1], binding was characterised by a dissociation constant (Kd) of 95.7 nM, the koff came out at 0.00761 s⁻¹ and the kon stood at 79500 M⁻¹ s⁻¹.

B10: ZalH3 (antibody, human IgG1, kappa, V domains shown)
VH: QVQLVESGGGVVQPGRSLRLSCAASGFTFSTYGMHWVRQAPGKGLEWVAVIWDDGSYKYYGDSVKGRFTISRDNSKNTLYLQMNSLRAEDTAVYYCARDGLTMVRGVMKDYFDYWGQGTLVTVSS
VL: DIQLTQSPSSLSASVGDRVTITCRASQDISSALVWYQQKPGKAPKLLIYDASSLESGVPSRFSGSESGTDFTLTISSLQPEDFATYYCQQFNSYPLTFGGGTKVEIKR
notes: as for B1
As to B10, in assay [1], the Kd came out at 302 nM, the koff is 0.0243 s⁻¹ and the kon is 80500 M⁻¹ s⁻¹.

B11: ChiF4-18 (antibody, human IgG1, kappa, V domains shown)
VH: EVQLQQSGAELVRPGSSVKMSCKTSGYTFTSYGINWVKQRPGQGLEWIGYIYLGSDYTEYNEKFKGKATLTSDTTSSTAYMQLSSLTSEDSAIYFCARSAGSLFAYWGQGTLVTVSA
VL: DIQLTQSPSSLSASLGERVSLTCRASQDIGITLNWLQQEPDGTIKRLIYATSSLDSGVPKRFSGSRSGSDYSLTISSLESEDFVDYYCLQYASSPYTFGGGTKLEIKR
notes: murine variable regions on human IgG1 constant regions; also called chimeric antibody of F4-18
In assay [2], B11 came in with an Emax of 79800.

B12: M4H1L1-ZalH′ (bispecific antibody, human IgG1, kappa)
heavy: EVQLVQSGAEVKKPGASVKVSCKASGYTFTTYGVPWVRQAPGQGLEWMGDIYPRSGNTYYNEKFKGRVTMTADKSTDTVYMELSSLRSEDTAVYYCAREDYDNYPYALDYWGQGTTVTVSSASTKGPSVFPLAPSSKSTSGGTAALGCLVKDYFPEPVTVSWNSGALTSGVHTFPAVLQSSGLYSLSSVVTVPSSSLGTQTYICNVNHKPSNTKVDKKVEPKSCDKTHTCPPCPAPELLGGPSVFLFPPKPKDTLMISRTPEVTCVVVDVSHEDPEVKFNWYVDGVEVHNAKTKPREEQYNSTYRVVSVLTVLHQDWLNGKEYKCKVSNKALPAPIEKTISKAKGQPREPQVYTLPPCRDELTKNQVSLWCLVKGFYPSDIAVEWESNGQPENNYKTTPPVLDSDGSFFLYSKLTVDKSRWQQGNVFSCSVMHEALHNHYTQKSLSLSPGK
light: DIQMTQSPSSLSASVGDRVTITCSASSSVFNMNWYQQKPGKSPKLWIYDISKLASGVPSRFSGSGSGTDFTLTISSLQPEDFATYYCQQRSFYPPTFGGGTKVEIKRTVAAPSVFIFPPSDEQLKSGTASVVCLLNNFYPREAKVQWKVDNALQSGNSQESVTEQDSKDSTYSLSSTLTLSKADYEKHKVYACEVTHQGLSSPVTKSFNRGEC
chain 1: not shown
chain 2: DIQLTQSPSSLSASVGDRVTITCRASQDISSALVWYQQKPGKAPKLLIYDASSLESGVPSRFSGSESGTDFTLTISSLQPEDFATYYCQQFNSYPLTFGGGTKVEIKGGGGSSGAPRFLTRPKASVVSVGKDATLSCQIVGNPFPQVSWEKDKQPVTAGVRFRLAQDGDLYRLKILDLQLSDSGQYVCRARNAHGEAFACLGLQVDAEA
notes: 1:1 format: MUC1 Fab arm with Fc knob; EGFR arm VH-linker-Titin-Fc hole paired with VL-linker-Obscurin; also called anti-EGFR-MUC1 bispecific antibody
In assay [3], B12 registered a Kd of 4.13 nM, a koff of 0.00072 s⁻¹ and a kon of 174000 M⁻¹ s⁻¹.

B13: M4H1L1-ZalH10 (bispecific antibody, human IgG1, kappa)
heavy: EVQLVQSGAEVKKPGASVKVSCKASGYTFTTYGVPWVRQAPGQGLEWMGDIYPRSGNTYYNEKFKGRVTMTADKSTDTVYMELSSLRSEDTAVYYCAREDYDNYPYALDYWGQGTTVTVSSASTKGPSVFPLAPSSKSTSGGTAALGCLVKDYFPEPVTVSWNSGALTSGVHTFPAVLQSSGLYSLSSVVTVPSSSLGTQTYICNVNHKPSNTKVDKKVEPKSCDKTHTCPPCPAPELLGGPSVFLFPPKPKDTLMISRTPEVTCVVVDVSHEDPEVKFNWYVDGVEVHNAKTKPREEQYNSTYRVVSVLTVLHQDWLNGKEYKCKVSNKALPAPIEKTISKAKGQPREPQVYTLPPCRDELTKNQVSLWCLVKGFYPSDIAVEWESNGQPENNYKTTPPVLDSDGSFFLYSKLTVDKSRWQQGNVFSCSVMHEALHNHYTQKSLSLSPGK
light: DIQMTQSPSSLSASVGDRVTITCSASSSVFNMNWYQQKPGKSPKLWIYDISKLASGVPSRFSGSGSGTDFTLTISSLQPEDFATYYCQQRSFYPPTFGGGTKVEIKRTVAAPSVFIFPPSDEQLKSGTASVVCLLNNFYPREAKVQWKVDNALQSGNSQESVTEQDSKDSTYSLSSTLTLSKADYEKHKVYACEVTHQGLSSPVTKSFNRGEC
chain 1: not shown
chain 2: DIQLTQSPSSLSASVGDRVTITCRASQDISSALVWYQQKPGKAPKLLIYDASSLESGVPSRFSGSESGTDFTLTISSLQPEDFATYYCQQFNSYPLTFGGGTKVEIKGGGGSSGAPRFLTRPKASVVSVGKDATLSCQIVGNPFPQVSWEKDKQPVTAGVRFRLAQDGDLYRLKILDLQLSDSGQYVCRARNAHGEAFACLGLQVDAEA
notes: as for B12
For the molecule B13, in assay [3], the Kd came to 56.4 nM, the koff was found to be 0.0113 s⁻¹ and the kon is 201000 M⁻¹ s⁻¹.

B14: M4H1L1-ZalH8 (bispecific antibody, human IgG1, kappa)
heavy: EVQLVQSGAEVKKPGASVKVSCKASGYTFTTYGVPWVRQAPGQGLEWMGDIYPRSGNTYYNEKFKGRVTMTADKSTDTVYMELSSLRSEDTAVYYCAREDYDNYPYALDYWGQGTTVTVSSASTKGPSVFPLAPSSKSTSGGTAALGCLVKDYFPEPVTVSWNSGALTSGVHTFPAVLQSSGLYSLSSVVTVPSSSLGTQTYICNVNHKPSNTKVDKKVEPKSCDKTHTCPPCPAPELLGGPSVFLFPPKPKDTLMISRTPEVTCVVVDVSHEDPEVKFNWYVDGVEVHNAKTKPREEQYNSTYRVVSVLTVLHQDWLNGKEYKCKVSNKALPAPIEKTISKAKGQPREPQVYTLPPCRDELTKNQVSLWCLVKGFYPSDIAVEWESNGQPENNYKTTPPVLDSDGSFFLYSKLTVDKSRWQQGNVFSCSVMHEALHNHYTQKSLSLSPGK
light: DIQMTQSPSSLSASVGDRVTITCSASSSVFNMNWYQQKPGKSPKLWIYDISKLASGVPSRFSGSGSGTDFTLTISSLQPEDFATYYCQQRSFYPPTFGGGTKVEIKRTVAAPSVFIFPPSDEQLKSGTASVVCLLNNFYPREAKVQWKVDNALQSGNSQESVTEQDSKDSTYSLSSTLTLSKADYEKHKVYACEVTHQGLSSPVTKSFNRGEC
chain 1: not shown
chain 2: DIQLTQSPSSLSASVGDRVTITCRASQDISSALVWYQQKPGKAPKLLIYDASSLESGVPSRFSGSESGTDFTLTISSLQPEDFATYYCQQFNSYPLTFGGGTKVEIKGGGGSSGAPRFLTRPKASVVSVGKDATLSCQIVGNPFPQVSWEKDKQPVTAGVRFRLAQDGDLYRLKILDLQLSDSGQYVCRARNAHGEAFACLGLQVDAEA
notes: as for B12
In assay [3], B14 showed a Kd of 162 nM, a koff of 0.0275 s⁻¹ and a kon of 171000 M⁻¹ s⁻¹.

B15: M4H1L1-ZalH13 (bispecific antibody, human IgG1, kappa)
heavy: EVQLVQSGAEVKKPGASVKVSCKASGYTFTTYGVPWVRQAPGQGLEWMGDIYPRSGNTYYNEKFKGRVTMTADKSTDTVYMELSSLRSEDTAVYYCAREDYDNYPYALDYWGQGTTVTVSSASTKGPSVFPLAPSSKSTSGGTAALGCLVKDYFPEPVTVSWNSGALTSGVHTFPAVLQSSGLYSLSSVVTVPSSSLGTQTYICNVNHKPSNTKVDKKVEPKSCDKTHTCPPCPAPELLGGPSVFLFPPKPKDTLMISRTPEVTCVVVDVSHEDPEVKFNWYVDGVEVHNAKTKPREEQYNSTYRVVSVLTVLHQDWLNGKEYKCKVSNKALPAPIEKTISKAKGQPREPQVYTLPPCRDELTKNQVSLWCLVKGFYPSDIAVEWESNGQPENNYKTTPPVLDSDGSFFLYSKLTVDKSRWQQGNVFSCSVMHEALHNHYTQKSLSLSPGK
light: DIQMTQSPSSLSASVGDRVTITCSASSSVFNMNWYQQKPGKSPKLWIYDISKLASGVPSRFSGSGSGTDFTLTISSLQPEDFATYYCQQRSFYPPTFGGGTKVEIKRTVAAPSVFIFPPSDEQLKSGTASVVCLLNNFYPREAKVQWKVDNALQSGNSQESVTEQDSKDSTYSLSSTLTLSKADYEKHKVYACEVTHQGLSSPVTKSFNRGEC
chain 1: not shown
chain 2: DIQLTQSPSSLSASVGDRVTITCRASQDISSALVWYQQKPGKAPKLLIYDASSLESGVPSRFSGSESGTDFTLTISSLQPEDFATYYCQQFNSYPLTFGGGTKVEIKGGGGSSGAPRFLTRPKASVVSVGKDATLSCQIVGNPFPQVSWEKDKQPVTAGVRFRLAQDGDLYRLKILDLQLSDSGQYVCRARNAHGEAFACLGLQVDAEA
notes: as for B12
In assay [3], B15 displayed a Kd of 0.163 nM, a koff of 4.57e-05 s⁻¹ and a kon of 280000 M⁻¹ s⁻¹.

B16: ChiF4-1 (antibody, human IgG1, kappa, V domains shown)
VH: QIQLQQSGPELVKPGASVKISCKASGYTFTDNYINWVKQRPGQGLEYIGWIYPGSGNNKFNEKFKGKATLTVDTSSRTAFMQLSSLTFEDSAVYFCARDYPFPSYHYGMDYWGQGTSVTVSS
VL: QILLTQSPAIMSASPGERVTITCSASSSVSYIHWFQQKPGTSPKLWIYSTSNLASGVPPRFSGSGSGTSFSLTVSRMEAEDAATYYCQQRSSYPPTFGGGTKLEIKR
notes: murine variable regions on human IgG1 constant regions; also called chimeric antibody of F4-1
In assay [2], B16 registered an Emax of 41700.
